Assay results published in the supplement of paper PMC9233669.
Variants at the floor of the assay were thinned out.

Legend:
biotinyl-Trp-oxazolone = assay: self-aminoacylation, catalytic enhancement (BWO) (fold over background); higher = more active; k-Seq, kA / k0A0; sequences stand for … in GGGAAUGGAUCCACAUCUACGAAUUC…UUCACUGCAGACUUGACGAAGCUG
In short: (§1)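 Each biotinyl-aminoacyl-oxazolone, at 2–1250 μM, was incubated with mutagenized RNA pools (0.43 μM) carrying a 21-nt variable region. The 50 μL reactions contained HEPES/NaCl/KCl/MgCl2/CaCl2 buffer with 5% acetonitrile at pH 6.9–7.0 and ran for 90 minutes at room temperature. After streptavidin capture, RNA was measured by qPCR in triplicate and by Illumina sequencing, and catalytic enhancement was calculated as median kA over the uncatalyzed rate from a pseudo-first-order fit of per-sequence fraction reacted.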

biotinyl-Val-oxazolone = assay: self-aminoacylation, catalytic enhancement (BVO) (fold over background); higher = more active; k-Seq, kA / k0A0; sequences stand for … in GGGAAUGGAUCCACAUCUACGAAUUC…UUCACUGCAGACUUGACGAAGCUG
In short: as §1

biotinyl-Phe-oxazolone = assay: self-aminoacylation, catalytic enhancement (BFO) (fold over background); higher = more active; k-Seq, kA / k0A0; sequences stand for … in GGGAAUGGAUCCACAUCUACGAAUUC…UUCACUGCAGACUUGACGAAGCUG
In short: as §1

biotinyl-Met-oxazolone = assay: self-aminoacylation, catalytic enhancement (BMO) (fold over background); higher = more active; k-Seq, kA / k0A0; sequences stand for … in GGGAAUGGAUCCACAUCUACGAAUUC…UUCACUGCAGACUUGACGAAGCUG
In short: as §1

biotinyl-Leu-oxazolone = assay: self-aminoacylation, catalytic enhancement (BLO) (fold over background); higher = more active; k-Seq, kA / k0A0; sequences stand for … in GGGAAUGGAUCCACAUCUACGAAUUC…UUCACUGCAGACUUGACGAAGCUG
In short: as §1

biotinyl-Ile-oxazolone = assay: self-aminoacylation, catalytic enhancement (BIO) (fold over background); higher = more active; k-Seq, kA / k0A0; sequences stand for … in GGGAAUGGAUCCACAUCUACGAAUUC…UUCACUGCAGACUUGACGAAGCUG
In short: as §1

AUACUUCAAACAAUCCGUCUG [Fam1A.1 aminoacylation ribozyme variant]
self-aminoacylation (biotinyl-Trp-oxazolone): 1.17 | self-aminoacylation (biotinyl-Val-oxazolone): 0.918 | self-aminoacylation (biotinyl-Phe-oxazolone): 1.42 | self-aminoacylation (biotinyl-Met-oxazolone): 1.05 | self-aminoacylation (biotinyl-Leu-oxazolone): 1.09 | self-aminoacylation (biotinyl-Ile-oxazolone): 1.04

AUACUUCAAACAAUCGGUGUG [Fam1A.1 aminoacylation ribozyme variant]
self-aminoacylation (biotinyl-Trp-oxazolone): 2.68 | self-aminoacylation (biotinyl-Val-oxazolone): 0.94 | self-aminoacylation (biotinyl-Phe-oxazolone): 3.81 | self-aminoacylation (biotinyl-Met-oxazolone): 1.22 | self-aminoacylation (biotinyl-Leu-oxazolone): 1.25 | self-aminoacylation (biotinyl-Ile-oxazolone): 1.05

AUACUUCAAACAAUUGGUCUG [Fam1A.1 aminoacylation ribozyme variant]
self-aminoacylation (biotinyl-Trp-oxazolone): 1.16 | self-aminoacylation (biotinyl-Val-oxazolone): 1.04 | self-aminoacylation (biotinyl-Phe-oxazolone): 1.16 | self-aminoacylation (biotinyl-Met-oxazolone): 0.903 | self-aminoacylation (biotinyl-Leu-oxazolone): 0.956 | self-aminoacylation (biotinyl-Ile-oxazolone): 1.19

AUACUUCAAACAGUCGGUCUG [Fam1A.1 aminoacylation ribozyme variant]
self-aminoacylation (biotinyl-Trp-oxazolone): 0.831 | self-aminoacylation (biotinyl-Val-oxazolone): 0.699 | self-aminoacylation (biotinyl-Phe-oxazolone): 0.584 | self-aminoacylation (biotinyl-Met-oxazolone): 0.965 | self-aminoacylation (biotinyl-Leu-oxazolone): 0.996 | self-aminoacylation (biotinyl-Ile-oxazolone): 0.876

AUACUUCAUACAAUCGGUCUG [Fam1A.1 aminoacylation ribozyme variant]
self-aminoacylation (biotinyl-Trp-oxazolone): 0.952 | self-aminoacylation (biotinyl-Val-oxazolone): 0.939 | self-aminoacylation (biotinyl-Phe-oxazolone): 1.1 | self-aminoacylation (biotinyl-Met-oxazolone): 0.981 | self-aminoacylation (biotinyl-Leu-oxazolone): 0.874 | self-aminoacylation (biotinyl-Ile-oxazolone): 1.02

AUAUUUCAAACAAUCGGUCUG [Fam1A.1 aminoacylation ribozyme variant]
self-aminoacylation (biotinyl-Trp-oxazolone): 3.15 | self-aminoacylation (biotinyl-Val-oxazolone): 0.834 | self-aminoacylation (biotinyl-Phe-oxazolone): 5.45 | self-aminoacylation (biotinyl-Met-oxazolone): 0.844 | self-aminoacylation (biotinyl-Leu-oxazolone): 0.891 | self-aminoacylation (biotinyl-Ile-oxazolone): 0.897

AUAUUUGCUAAUAGUCGCAAG [Fam3.1 aminoacylation ribozyme variant]
self-aminoacylation (biotinyl-Trp-oxazolone): 1.75 | self-aminoacylation (biotinyl-Val-oxazolone): 1.49 | self-aminoacylation (biotinyl-Phe-oxazolone): 2.04 | self-aminoacylation (biotinyl-Met-oxazolone): 1.35 | self-aminoacylation (biotinyl-Leu-oxazolone): 1.37 | self-aminoacylation (biotinyl-Ile-oxazolone): 1.57

AUCACCCAGGUCAUCGAGUGA [Fam2.1 aminoacylation ribozyme variant]
self-aminoacylation (biotinyl-Trp-oxazolone): 8.46 | self-aminoacylation (biotinyl-Val-oxazolone): 4.61 | self-aminoacylation (biotinyl-Phe-oxazolone): 30.4 | self-aminoacylation (biotinyl-Met-oxazolone): 7.75 | self-aminoacylation (biotinyl-Leu-oxazolone): 8.69 | self-aminoacylation (biotinyl-Ile-oxazolone): 4.04

AUCACCCUAGUCAUCGAGUGA [Fam2.1 aminoacylation ribozyme variant]
self-aminoacylation (biotinyl-Trp-oxazolone): 7.4 | self-aminoacylation (biotinyl-Val-oxazolone): 4.27 | self-aminoacylation (biotinyl-Phe-oxazolone): 49.7 | self-aminoacylation (biotinyl-Met-oxazolone): 8.04 | self-aminoacylation (biotinyl-Leu-oxazolone): 8.78 | self-aminoacylation (biotinyl-Ile-oxazolone): 4.35

AUCACCCUCGUCAUCGAGUGA [Fam2.1 aminoacylation ribozyme variant]
self-aminoacylation (biotinyl-Trp-oxazolone): 3.31 | self-aminoacylation (biotinyl-Val-oxazolone): 2.36 | self-aminoacylation (biotinyl-Phe-oxazolone): 19.7 | self-aminoacylation (biotinyl-Met-oxazolone): 3.54 | self-aminoacylation (biotinyl-Leu-oxazolone): 3.13 | self-aminoacylation (biotinyl-Ile-oxazolone): 2.12

AUCACCCUGGGCAUCGAGUGA [Fam2.1 aminoacylation ribozyme variant]
self-aminoacylation (biotinyl-Trp-oxazolone): 11.2 | self-aminoacylation (biotinyl-Val-oxazolone): 5.3 | self-aminoacylation (biotinyl-Phe-oxazolone): 69.7 | self-aminoacylation (biotinyl-Met-oxazolone): 10.6 | self-aminoacylation (biotinyl-Leu-oxazolone): 13.1 | self-aminoacylation (biotinyl-Ile-oxazolone): 4.64

AUCACCCUGGUCAUCGAGUAA [Fam2.1 aminoacylation ribozyme variant]
self-aminoacylation (biotinyl-Trp-oxazolone): 2.89 | self-aminoacylation (biotinyl-Val-oxazolone): 2.21 | self-aminoacylation (biotinyl-Phe-oxazolone): 6.38 | self-aminoacylation (biotinyl-Met-oxazolone): 3.93 | self-aminoacylation (biotinyl-Leu-oxazolone): 3.44 | self-aminoacylation (biotinyl-Ile-oxazolone): 2

AUCACCCUGGUCAUCGAGUGA [Fam2.1 aminoacylation ribozyme variant]
self-aminoacylation (biotinyl-Trp-oxazolone): 28.4 | self-aminoacylation (biotinyl-Val-oxazolone): 11.3 | self-aminoacylation (biotinyl-Phe-oxazolone): 154 | self-aminoacylation (biotinyl-Met-oxazolone): 27.8 | self-aminoacylation (biotinyl-Leu-oxazolone): 27 | self-aminoacylation (biotinyl-Ile-oxazolone): 10.6

AUCACCCUGGUCAUCGAGUGU [Fam2.1 aminoacylation ribozyme variant]
self-aminoacylation (biotinyl-Trp-oxazolone): 20.2 | self-aminoacylation (biotinyl-Val-oxazolone): 8.64 | self-aminoacylation (biotinyl-Phe-oxazolone): 94.9 | self-aminoacylation (biotinyl-Met-oxazolone): 22.5 | self-aminoacylation (biotinyl-Leu-oxazolone): 21.5 | self-aminoacylation (biotinyl-Ile-oxazolone): 7.23

AUCACCCUGGUCAUCGGGUGA [Fam2.1 aminoacylation ribozyme variant]
self-aminoacylation (biotinyl-Trp-oxazolone): 14.1 | self-aminoacylation (biotinyl-Val-oxazolone): 5.27 | self-aminoacylation (biotinyl-Phe-oxazolone): 33.4 | self-aminoacylation (biotinyl-Met-oxazolone): 9.05 | self-aminoacylation (biotinyl-Leu-oxazolone): 9.48 | self-aminoacylation (biotinyl-Ile-oxazolone): 5.17

AUCACCCUGGUCAUCGUGUGA [Fam2.1 aminoacylation ribozyme variant]
self-aminoacylation (biotinyl-Trp-oxazolone): 4.97 | self-aminoacylation (biotinyl-Val-oxazolone): 2.31 | self-aminoacylation (biotinyl-Phe-oxazolone): 34.7 | self-aminoacylation (biotinyl-Met-oxazolone): 3.98 | self-aminoacylation (biotinyl-Leu-oxazolone): 5.08 | self-aminoacylation (biotinyl-Ile-oxazolone): 1.81

AUCACCCUGGUCAUCUAGUGA [Fam2.1 aminoacylation ribozyme variant]
self-aminoacylation (biotinyl-Trp-oxazolone): 12.9 | self-aminoacylation (biotinyl-Val-oxazolone): 5.63 | self-aminoacylation (biotinyl-Phe-oxazolone): 85 | self-aminoacylation (biotinyl-Met-oxazolone): 12.8 | self-aminoacylation (biotinyl-Leu-oxazolone): 11.7 | self-aminoacylation (biotinyl-Ile-oxazolone): 5.3

AUCACCCUGGUCCUCGAGUGA [Fam2.1 aminoacylation ribozyme variant]
self-aminoacylation (biotinyl-Trp-oxazolone): 7.28 | self-aminoacylation (biotinyl-Val-oxazolone): 4.54 | self-aminoacylation (biotinyl-Phe-oxazolone): 51.6 | self-aminoacylation (biotinyl-Met-oxazolone): 6.62 | self-aminoacylation (biotinyl-Leu-oxazolone): 8.29 | self-aminoacylation (biotinyl-Ile-oxazolone): 4.01

AUCACCCUGGUCGUCGAGUGA [Fam2.1 aminoacylation ribozyme variant]
self-aminoacylation (biotinyl-Trp-oxazolone): 1.41 | self-aminoacylation (biotinyl-Val-oxazolone): 1.31 | self-aminoacylation (biotinyl-Phe-oxazolone): 5.78 | self-aminoacylation (biotinyl-Met-oxazolone): 1.39 | self-aminoacylation (biotinyl-Leu-oxazolone): 2.67 | self-aminoacylation (biotinyl-Ile-oxazolone): 1.24

AUCACCCUGGUCUUCGAGUGA [Fam2.1 aminoacylation ribozyme variant]
self-aminoacylation (biotinyl-Trp-oxazolone): 9.14 | self-aminoacylation (biotinyl-Val-oxazolone): 4.74 | self-aminoacylation (biotinyl-Phe-oxazolone): 50.3 | self-aminoacylation (biotinyl-Met-oxazolone): 8.01 | self-aminoacylation (biotinyl-Leu-oxazolone): 8.44 | self-aminoacylation (biotinyl-Ile-oxazolone): 3.81

AUCACCCUGGUGAUCGAGUGA [Fam2.1 aminoacylation ribozyme variant]
self-aminoacylation (biotinyl-Trp-oxazolone): 8.41 | self-aminoacylation (biotinyl-Val-oxazolone): 3.87 | self-aminoacylation (biotinyl-Phe-oxazolone): 54.1 | self-aminoacylation (biotinyl-Met-oxazolone): 7.25 | self-aminoacylation (biotinyl-Leu-oxazolone): 8.91 | self-aminoacylation (biotinyl-Ile-oxazolone): 3.57

AUCACCCUUGUCAUCGAGUGA [Fam2.1 aminoacylation ribozyme variant]
self-aminoacylation (biotinyl-Trp-oxazolone): 10.7 | self-aminoacylation (biotinyl-Val-oxazolone): 4.91 | self-aminoacylation (biotinyl-Phe-oxazolone): 59.7 | self-aminoacylation (biotinyl-Met-oxazolone): 9.48 | self-aminoacylation (biotinyl-Leu-oxazolone): 10.1 | self-aminoacylation (biotinyl-Ile-oxazolone): 4.65

AUCACCUUGGUCAUCGAGUGA [Fam2.1 aminoacylation ribozyme variant]
self-aminoacylation (biotinyl-Trp-oxazolone): 7.19 | self-aminoacylation (biotinyl-Val-oxazolone): 3.35 | self-aminoacylation (biotinyl-Phe-oxazolone): 5.13 | self-aminoacylation (biotinyl-Met-oxazolone): 5.76 | self-aminoacylation (biotinyl-Leu-oxazolone): 6.86 | self-aminoacylation (biotinyl-Ile-oxazolone): 3.39

AUCCACCGAGGUCAUCGGGUG [Fam2.2 aminoacylation ribozyme variant]
self-aminoacylation (biotinyl-Trp-oxazolone): 7.06 | self-aminoacylation (biotinyl-Val-oxazolone): 6.67 | self-aminoacylation (biotinyl-Phe-oxazolone): 125 | self-aminoacylation (biotinyl-Met-oxazolone): 9.91 | self-aminoacylation (biotinyl-Leu-oxazolone): 13.4 | self-aminoacylation (biotinyl-Ile-oxazolone): 5.2

AUCCACCUAGGCCAUCGGGUG [Fam2.2 aminoacylation ribozyme variant]
self-aminoacylation (biotinyl-Trp-oxazolone): 6.22 | self-aminoacylation (biotinyl-Val-oxazolone): 4.12 | self-aminoacylation (biotinyl-Phe-oxazolone): 27.4 | self-aminoacylation (biotinyl-Met-oxazolone): 3.46 | self-aminoacylation (biotinyl-Leu-oxazolone): 5.49 | self-aminoacylation (biotinyl-Ile-oxazolone): 3.55

AUCCACCUAGGUAAUCGGGUG [Fam2.2 aminoacylation ribozyme variant]
self-aminoacylation (biotinyl-Trp-oxazolone): 5.34 | self-aminoacylation (biotinyl-Val-oxazolone): 3.1 | self-aminoacylation (biotinyl-Phe-oxazolone): 27.6 | self-aminoacylation (biotinyl-Met-oxazolone): 3.45 | self-aminoacylation (biotinyl-Leu-oxazolone): 4.49 | self-aminoacylation (biotinyl-Ile-oxazolone): 3
